According to patent US20100136005A1 (Genentech, published 2010):
Numbering of substitutions follows the chain as printed. One block for each binder: values may come before it.

Assays:
human CD11a [1] = molecular target: T1, human CD11a (human, UniProt P20701 26-1170); test: cell-based or functional assay
human CD11a [2] = molecular target: T1, human CD11a; test: cell-based or functional assay; remark: listed apart in the source
rhesus CD11a [3] = molecular target: T2, rhesus CD11a (rhesus, UniProt H9Z8N3 26-1169); test: cell binding, rhesus against human CD11a
T2 construct: whole, on cells; also called rhCD11a
T2 sequence: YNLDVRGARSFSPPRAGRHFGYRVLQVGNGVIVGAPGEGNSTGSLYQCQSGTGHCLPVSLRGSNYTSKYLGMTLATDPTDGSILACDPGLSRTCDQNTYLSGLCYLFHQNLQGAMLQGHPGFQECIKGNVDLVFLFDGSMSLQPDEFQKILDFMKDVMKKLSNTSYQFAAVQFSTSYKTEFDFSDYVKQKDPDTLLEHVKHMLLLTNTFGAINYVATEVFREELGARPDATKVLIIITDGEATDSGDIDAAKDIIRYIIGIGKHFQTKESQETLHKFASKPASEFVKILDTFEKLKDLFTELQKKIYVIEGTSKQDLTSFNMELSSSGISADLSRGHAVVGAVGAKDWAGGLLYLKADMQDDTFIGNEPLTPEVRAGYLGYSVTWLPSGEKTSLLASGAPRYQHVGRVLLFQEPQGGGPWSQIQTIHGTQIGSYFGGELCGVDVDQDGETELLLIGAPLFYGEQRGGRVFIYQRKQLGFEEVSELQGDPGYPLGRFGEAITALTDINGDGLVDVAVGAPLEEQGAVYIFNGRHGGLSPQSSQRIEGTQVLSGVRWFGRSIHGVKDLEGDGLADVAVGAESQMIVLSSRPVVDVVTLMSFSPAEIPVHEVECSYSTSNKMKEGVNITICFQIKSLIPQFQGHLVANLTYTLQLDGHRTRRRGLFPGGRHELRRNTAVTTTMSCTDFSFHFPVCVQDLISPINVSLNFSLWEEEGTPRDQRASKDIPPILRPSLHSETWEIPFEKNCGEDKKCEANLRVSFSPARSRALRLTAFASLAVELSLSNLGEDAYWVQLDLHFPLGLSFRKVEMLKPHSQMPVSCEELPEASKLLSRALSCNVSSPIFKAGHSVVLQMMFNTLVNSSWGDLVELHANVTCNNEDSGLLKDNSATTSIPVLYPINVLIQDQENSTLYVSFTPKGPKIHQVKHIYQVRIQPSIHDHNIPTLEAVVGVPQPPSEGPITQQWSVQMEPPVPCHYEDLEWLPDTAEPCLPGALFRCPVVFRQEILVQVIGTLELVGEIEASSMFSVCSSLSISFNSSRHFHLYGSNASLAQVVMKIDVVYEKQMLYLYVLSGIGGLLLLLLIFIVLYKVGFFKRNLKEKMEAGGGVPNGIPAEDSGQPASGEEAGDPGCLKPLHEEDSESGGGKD

human CD11a [4] = molecular target: T1, human CD11a; test: FACScan, Jurkat cells
Experimental: (§1) Aliquots of 10⁶ Jurkat T-cells were incubated with serial dilutions of humanized and control antibodies in PBS-0.1% BSA-10 mM sodium azide for 45 min at 4° C. The cells were washed and then incubated in fluorescein-conjugated goat anti-human F(ab′)₂ (Organon Teknika, Westchester, Pa.) for 45 min at 4° C. Cells were washed and analysed on a FACScan (Becton Dickinson, Mountain View, Calif.). 8×10³ cells were acquired by list mode and gated by forward light scatter versus side light scatter, thereby excluding dead cells and debris.

rhesus CD11a [5] = molecular target: T2, rhesus CD11a; test: binding to rhesus peripheral blood lymphocytes
rhesus CD11a [6] = molecular target: T2, rhesus CD11a; test: binding to rhesus peripheral blood lymphocytes; end assigned by the printed EC50s
rhesus CD11a [7] = molecular target: T2, rhesus CD11a; test: rhesus EC50 of the variant against human EC50 of HuIgG1; end assigned by the printed EC50s
human CD11a [8] = molecular target: T1, human CD11a; test: FACScan, Jurkat cells; ratio to HuIgG1 EC50 (0.042 nM)
Experimental: as §1

rhesus CD11a [9] = molecular target: T2, rhesus CD11a; test: binding to rhesus peripheral blood lymphocytes; ratio to HuIgG1 EC50 (45.6 nM)
rhesus CD11a [10] = molecular target: T2, rhesus CD11a; test: as above; remark: listed apart in the source

B1: humanized MHM24 HuIgG1 (antibody, V domains shown)
VH: EVQLVESGGGLVQPGGSLRLSCAASGYSFTGHWMNWVRQAPGKGLEWVGMIHPSDSETRYNQKFKDRFTISVDKSKNTLYLQMNSLRAEDTAVYYCARGIYFYGTTYFDYWGQGTLVTVSS
VL: DIQMTQSPSSLSASVGDRVTITCRASKTISKYLAWYQQKPGKAPKLLIYSGSTLQSGVPSRFSGSGSGTDFTLTISSLQPEDFATYYCQQHNEYPLTFGQGTKVEIKR
notes: F(ab)-8 VL and VH fused to human constant light and IgG1 heavy chains; also called huMHM24
IC50 Value (nM), Jurkat:HuK cell adhesion (human CD11a [1]): 0.13 nM
IC50 Value (nM), human mixed lymphocyte response (human CD11a [2]): 0.38 nM
fold reduction in binding (rhesus against human CD11a) (rhesus CD11a [3]): ~1000 fold

B3: AspH54Ala (antibody, human IgG1, V domains shown)
VH: B1 VH with D55A
VL: DIQMTQSPSSLSASVGDRVTITCRASKTISKYLAWYQQKPGKAPKLLIYSGSTLQSGVPSRFSGSGSGTDFTLTISSLQPEDFATYYCQQHNEYPLTFGQGTKVEIK
notes: HuIgG1 variant (human IgG1); also called AspH54 change to Ala
fold improvement over HuIgG1 (rhesus CD11a [5]): 3 fold

B5: AspH54Gln (antibody, human IgG1, V domains shown)
VH: B1 VH with D55Q
VL: B3 VL
notes: HuIgG1 variant (human IgG1); also called AspH54 change to Gln
Variant EC50/HuIgG1 EC50 (human CD11a [8]): 20 ratio
Variant EC50/HuIgG1 EC50 (rhesus CD11a [9]): 4.4 ratio

B6: GluH56Ala (antibody, human IgG1, V domains shown)
VH: B1 VH with E57A
VL: B3 VL
notes: HuIgG1 variant (human IgG1)
fold improvement over HuIgG1 (rhesus CD11a [5]): 3 fold

B7: AspH54Lys (antibody, human IgG1, V domains shown)
VH: B1 VH with D55K
VL: B3 VL
notes: HuIgG1 variant (human IgG1); also called AspH54 change to Lys
Variant EC50/HuIgG1 EC50 (rhesus CD11a [9]): 3.8 ratio

B10: SerL52Ala (antibody, human IgG1, V domains shown)
VH: B1 VH
VL: B1 VL with S52A
notes: HuIgG1 variant (human IgG1)
Var.EC50/HuIgG1 EC50 (rhesus CD11a [10]): 13.3 ratio

B13: AspH54Glu (antibody, human IgG1, V domains shown)
VH: B1 VH with D55E
VL: B3 VL
notes: HuIgG1 variant (human IgG1); also called AspH54 change to Glu
Variant EC50/HuIgG1 EC50 (human CD11a [8]): 16 ratio

B16: humanized MHM24 F(ab)-5 (Fab, V domains shown)
VH: B1 VH with Y27F, K76S, N77S
VL: B3 VL with T53S, Q55E
notes: F(ab) with human CL and CH1; Worked back from F(ab)-8
fold improvement in binding (against F(ab)-2) (human CD11a [4]): 23 fold

B17: murine MHM24 (antibody, V domains shown)
VH: EVQLQQPGAELMRPGASVKLSCKASGYSFTGHWMNWVRQRPGQGLEWIGMIHPSDSETRLNQKFKDKATLTVDKSSSSAYMQLSSPTSEDSAVYYCARGIYFYGTTYFDYWGQGTTLTVSS
VL: DVQITQSPSYLAASPGETISINCRASKTISKYLAWYQEKPGKTNKLLIYSGSTLQSGIPSRFSGSGSGTDFTLTISSLEPEDFAMYYCQQHNEYPLTFGTGTKLELKR
notes: Murine anti-human CD11a MAb; also called muMHM24; murMHM24
IC50 Value (nM), Jurkat:HuK cell adhesion (human CD11a [1]): 0.09 nM
IC50 Value (nM), human mixed lymphocyte response (human CD11a [2]): 0.19 nM
fold reduction in binding (rhesus against human CD11a) (rhesus CD11a [3]): ~1000 fold

Results, then the binder that gave them:

fold reduction in binding (against F(ab)-2) (human CD11a [4]): 3 fold
B2: humanized MHM24 F(ab)-4 (Fab, V domains shown)
VH: B1 VH with Y27F, V72R, K74N
VL: B3 VL with T53S, Q55E

fold improvement over the EC50 of HuIgG1 for rhesus CD11a (rhesus CD11a [6]): 240 to 415 fold
fold weaker than the EC50 of HuIgG1 for human CD11a (rhesus CD11a [7]): 3 to 5 fold
B4: H2C11 (antibody, V domains shown)
VH: B1 VH with H52A, S54A, D55S, E57N
VL: B1 VL

fold better than HuIgG1 (rhesus CD11a [5]): 18 fold
B8: H2 (antibody, human IgG1, V domains shown)
VH: B1 VH with H52A, S54A, S56A
VL: B3 VL
notes: HuIgG1 variant (human IgG1); also called variant H2; HisH52Ala/SerH53Ala/SerH55Ala

Variant EC50/HuIgG1 EC50 (rhesus CD11a [9]): 0.9 ratio
B9: AspH54Ser (antibody, human IgG1, V domains shown)
VH: B1 VH with D55S
VL: B3 VL
notes: HuIgG1 variant (human IgG1); also called AspH54 change to Ser

fold improvement in binding (against F(ab)-5) (human CD11a [4]): 4 fold
B11: humanized MHM24 F(ab)-6 (Fab, V domains shown)
VH: B1 VH with Y27F, K76S, N77S
VL: B3 VL
notes: as for B16

fold improvement of rhesus binding (against HuIgG1) (rhesus CD11a [5]): 10 fold
Variant EC50/HuIgG1 EC50 (human CD11a [8]): 26 ratio
Variant EC50/HuIgG1 EC50 (rhesus CD11a [9]): 0.1 ratio
B12: AspH54Asn (antibody, human IgG1, V domains shown)
VH: B1 VH with D55N
VL: B3 VL
notes: HuIgG1 variant (human IgG1); also called AspH54 change to Asn

fold improvement in binding compared to HuIgG1 (rhesus CD11a [5]): 77 fold
B14: H2A1 (antibody, human IgG1, V domains shown)
VH: B1 VH with H52A, S54A
VL: B3 VL
notes: HuIgG1 variant (human IgG1); also called HisH52Ala/SerH53Ala; HisH52Ala-SerH53Ala

fold improvement in binding (against F(ab)-6) (human CD11a [4]): 3 fold
B15: humanized MHM24 F(ab)-7 (Fab, V domains shown)
VH: B1 VH with K76S, N77S
VL: B3 VL
notes: as for B16

IC50 Value (nM), Jurkat:HuK cell adhesion (human CD11a [1]): 0.1 nM
B18: chimeric MHM24 IgG1 (antibody, V domains shown)
VH: B17 VH
VL: B17 VL
